Experimental data from IntAct's records for PubMed 19765570.

B1: Guanine nucleotide-binding protein alpha-4 subunit (Dictyostelium discoideum (Slime mold)), P34042 (parent)
chain: MRFKCFGSEETEQSSKIDKSIETDRRKLRKDVKLLLLGPGESGKSTIFKQMKIIQEDGGYSVEELLEYRAFVYSNCISQMEALLTASAKLNIELEVENKQRAANVLRRTIGNEPWLLLAADIKHLWEDKGIKETYAQKDKHFQLNDSAAYFFDNIDRYMREDFVPNEQDVLRCRVRTTGIQESEFTFDKIRLKIVDVGGQRSQRRKWIHCFDCVTAVIFVAAMSDYDQVLREDESVNRTRESLALFKEIVNCDYFKETPIVLFLNKKDLFKEKLKRVPLQSCFSDYTGPNKYKDAAMFIQSQYLAQGPSPRTIYTHATCAVDTENIKFVFRAVRQTILSQALEHF
partner: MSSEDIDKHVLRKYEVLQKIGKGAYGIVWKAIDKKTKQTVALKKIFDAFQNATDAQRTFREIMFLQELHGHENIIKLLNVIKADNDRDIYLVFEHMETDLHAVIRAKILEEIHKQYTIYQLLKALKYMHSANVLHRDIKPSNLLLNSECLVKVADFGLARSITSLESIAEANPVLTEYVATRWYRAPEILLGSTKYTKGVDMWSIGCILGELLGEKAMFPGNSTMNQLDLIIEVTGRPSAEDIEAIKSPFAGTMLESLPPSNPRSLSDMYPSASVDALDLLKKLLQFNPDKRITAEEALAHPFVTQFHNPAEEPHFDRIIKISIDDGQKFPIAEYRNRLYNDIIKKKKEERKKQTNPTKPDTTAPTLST

Variants of: B1
Details: with erk2_dicdi erkB

| Variant | effect of a mutation on the interaction |
| --- | --- |
| MRFKCFGSEETEQSSKIDKSIETDRRKLRKDVKLLLLGPGESGKSTIFKQMKIIQEDGGYSVEELLEYRAFVYSNCISQMEALLTASAKLNIELEVENKQRAANVLRRTIGNEPWLLLAADIKHLWEDKGIKETYAQKDKHFQLNDSAAYFFDNIDRYMREDFVPNEQDVLRCRVRTTGIQESEFTFDKIRLKIVDVGGLRSQRRKWIHCFDCVTAVIFVAAMSDYDQVLREDESVNRTRESLALFKEIVNCDYFKETPIVLFLNKKDLFKEKLKRVPLQSCFSDYTGPNKYKDAAMFIQSQYLAQGPSPRTIYTHATCAVDTENIKFVFRAVRQTILSQALEHF [Q200L] | decreasing interaction |
| MRFKCFGSEETEQSSKIDKSIETDRRKLRKDVKLLLLGPGESGKSTIFKQMKIIQEDGGYSVEELLEYRAFVYSNCISQMEALLTASAKLNIELEVENKQRAANVLEETIGNEPWLLLAADIKHLWEDKGIKETYAQKDKHFQLNDSAAYFFDNIDRYMREDFVPNEQDVLRCRVRTTGIQESEFTFDKIRLKIVDVGGQRSQRRKWIHCFDCVTAVIFVAAMSDYDQVLREDESVNRTRESLALFKEIVNCDYFKETPIVLFLNKKDLFKEKLKRVPLQSCFSDYTGPNKYKDAAMFIQSQYLAQGPSPRTIYTHATCAVDTENIKFVFRAVRQTILSQALEHF [R107E;R108E] | decreasing interaction |
